From US20230124851A1 (INHIBRX LNC, published 2023)

Experiments:
[1] = molecular target: T1, CD3 on the surface of human T cells (human, UniProt P07766 23-207); experiment: flow cytometry on primary human T cells, anti-human IgG APC secondary
T1 construct: whole, on cells; Part of the CD3/TCR complex on cells; also called CD3 epsilon
Method: (§1) Binding of exemplary B7H3-targeting constrained CD3 engaging constructs set forth in Table E3 to CD3 on the surface of primary T cells or B7H3-expressing cells (A375) was assessed by flow cytometry. The T cells were primary T-cells that were negatively enriched from PBMCs isolated from healthy human donor peripheral blood leukopaks. Bound construct was detected with fluorophore-conjugated secondary antibodies specific for the human Fc (anti-human IgG APC secondary antibody) and binding was measured by flow cytometry. Cells incubated with secondary antibody only served as negative controls. Binding was compared to Dual-affinity Re-targeting Antibody (DART)-monomeric Fc format targeting B7H3 and CD3 (DART-Fc B7H3xCD3; see e.g. WO2017030926A1).

[2] = molecular target: T2, human B7H3 (CD276) on the cell surface (human, UniProt Q5ZPR3 29-534); experiment: flow cytometry on A375 cells (B7H3+), anti-human IgG APC secondary
T2 construct: B7H3 on A375 and other B7H3-positive or transfected cells
T2 sequence: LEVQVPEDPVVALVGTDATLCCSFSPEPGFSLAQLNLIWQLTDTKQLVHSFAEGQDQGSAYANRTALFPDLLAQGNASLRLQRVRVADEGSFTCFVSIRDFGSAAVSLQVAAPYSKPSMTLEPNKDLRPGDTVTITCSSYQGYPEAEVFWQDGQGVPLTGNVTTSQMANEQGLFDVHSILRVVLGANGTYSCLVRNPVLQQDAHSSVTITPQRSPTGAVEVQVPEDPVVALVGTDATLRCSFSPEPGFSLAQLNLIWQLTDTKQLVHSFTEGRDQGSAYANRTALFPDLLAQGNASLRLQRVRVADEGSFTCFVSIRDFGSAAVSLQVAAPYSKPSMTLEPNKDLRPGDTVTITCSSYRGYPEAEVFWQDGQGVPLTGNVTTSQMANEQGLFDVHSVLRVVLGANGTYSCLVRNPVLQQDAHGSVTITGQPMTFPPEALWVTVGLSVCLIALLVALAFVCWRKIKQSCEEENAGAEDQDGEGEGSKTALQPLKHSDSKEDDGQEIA
Method: as §1

[3] = molecular target: T2, human B7H3 (CD276) on the cell surface; experiment: flow cytometry on A375 cells (B7H3+), anti-human Fc secondary
[4] = molecular target: T1, CD3 on the surface of human T cells; experiment: flow cytometry on isolated T cells, anti-human Fc secondary
Method: Binding of exemplary multispecific constructs containing an antigen-binding domain directed against B7H3 were assessed for binding to B7H3 positive A375 tumor cells or primary T-cells. The constructs were generated containing antigen-binding domain(s) that were either sdAbs or a FABs, and that were positioned either only N-terminal to the Fc or both N-terminal to the Fc and C-terminal to the anti-CD3 binding domain (see FIGS. 30A and 30C and Table E5). Among the various formats of constructs tested included: sdAb-Fc-dsFV-sdAb (cx3072, cx5952) sdAb-Fc-FV (cx6079), sdAb-Fc-dsFV (cs6080, cx6081), MAB-FV (cx5067) and MAB-dsFV (cx6083, cx6084), where the FV represents the anti-CD3 binding domain composed of VH and VL domain pairs and “ds” notes disulfide stabilized via an engineered interdomain disulfide bond.
Binding was assessed as described above via flow cytometry using a fluorophore-conjugated anti-human Fc secondary antibody. cx3072 bound to A375 cells with high affinity (FIG. 31A) but not to isolated T-cells (FIG. 31B). […] The B7H3 -targeting sdAb containing constructs (cx5952, cx6079, cx6080, and cx6081) bound to B7H3 positive cells with similar affinities (depicted in FIG. 31E), with cx5952 displaying higher maximal binding. cx6079, cx6080 and cx6081 contain two identical B7H3-targeting sdAbs, whereas cx5952, and cx3072 contain two distinct B7H3-targeting sdAb that bind different epitopes. The MAB-FV, cx5067, contains two identical B7H3-targeting FAB domains.

T1 sequence (P07766 23-207): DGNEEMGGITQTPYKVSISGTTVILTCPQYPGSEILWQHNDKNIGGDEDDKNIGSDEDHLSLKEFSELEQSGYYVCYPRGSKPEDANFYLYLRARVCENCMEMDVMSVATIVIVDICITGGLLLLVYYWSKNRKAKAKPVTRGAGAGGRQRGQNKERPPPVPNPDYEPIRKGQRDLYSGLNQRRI

B1: cx2846 (bispecific antibody, not shown: a dimerising Fc or GST)
chain 1: EVQLVESGGGEVQPGGSLRLSCAASGSTFSSYHMSWFRQAPGKQREPVATSHHGGTTNYAGSVKGRFTISRDNAKNTVYLQMNTLRAEDTAVYYCKADHGYQGRGYWGQGTLVTVKPGGSGGGGIEPDIGGSGGSEVQLVESGGGLVQPGGSLRLSCAASGFTFNTYAMNWVRQAPGKCLEWVARIRSKYNNYATYYADSVKGRFTISRDDAKNTLYLQMSSLRAEDTAVYYCVRHGNFGNSYVSWFAYWGQGTLVTVKPEVQLVESGGGEVQPGGSLRLSCAPSERTFSTYTMGWFRQAPGKEREFVAVVNWGGGSKYYAESVKGRFTISRDNAKNTVYLQMSSLRAEDTAVYYCAAGGAYSGPYYDTRQYTYWGQGTLVTVKP
chain 2: GGSGGGGIEPDIGGSGGSQAVVTQEPSLTVSPGGTVTLTCGSSTGAVTTSNYANWVQQKPGQAFRGLIGGTNKRAPGVPARFSGSLLGGKAALTISGAQPEDEADYYCALWYSNHWVFGCGTKLTVL
[1]
  binding result: no binding (tested: 200 nM)

B2: cx3960 (bispecific antibody, not shown: a dimerising Fc or GST)
chain 1: EVQLVESGGGEVQPGGSLRLSCAASGSTFSSYHMSWFRQAPGKQREPVATSHHGGTTNYAGSVKGRFTISRDNAKNTVYLQMNTLRAEDTAVYYCKADHGYQGRGYWGQGTLVTVKPGGSGGGGIEPDIGGSGGSEVQLVESGGGLVQPGGSLRLSCAASGFTFNTYAMNWVRQAPGKCLEWVARIRSKYNNYATYYADSVKGRFTISRDDAKNTLYLQMSSLRAEDTAVYYCVRHGNFGNSYVSWFAYWGQGTLVTVKPQLQLQESGGGLVQAGDSLRLSCAASGFSFGSNVMMWVRQAPGKGPEWVSTIYSSGTGTFYADSVKGRFTISRNNAKNTLYLQMNSLKPDDTAVYYCATSGPVRGWGPRSQGTLVTVKP
chain 2: B1 chain 2
[1]
  binding result: no binding (tested: 200 nM)

B3: DART-Fc B7H3xCD3 (bispecific antibody)
chain 1: DIQLTQSPSFLSASVGDRVTITCKASQNVDTNVAWYQQKPGKAPKALIYSASYRYSGVPSRFSGSGSGTDFTLTISSLQPEDFATYYCQQYNNYPFTFGQGTKLEIKGGGSGGGGEVQLVESGGGLVQPGGSLRLSCAASGFTFSTYAMNWVRQAPGKGLEWVGRIRSKYNNYATYYADSVKDRFTISRDDSKNSLYLQMNSLKTEDTAVYYCVRHGNFGNSYVSWFAYWGQGTLVTVSSGGCGGGEVAALEKEVAALEKEVAALEKEVAALEKGGGDKTHTCPPCPAPEAAGGPSVFLFPPKPKDTLMISRTPEVTCVVVDVSHEDPEVKFNWYVDGVEVHNAKTKPREEQYNSTYRVVSVLTVLHQDWLNGKEYKCKVSNKALPAPIEKTISKAKGQPREPQVYTLPPSREEMTKNQVSLWCLVKGFYPSDIAVEWESNGQPENNYKTTPPVLDSDGSFFLYSKLTVDKSRWQQGNVFSCSVMHEALHNHYTQKSLSLSPGK
chain 2: QAVVTQEPSLTVSPGGTVTLTCRSSTGAVTTSNYANWVQQKPGQAPRGLIGGTNKRAPWTPARFSGSLLGGKAALTITGAQAEDEADYYCALWYSNLWVFGGGTKLTVLGGGGSGGGGEVQLVESGGGLVQPGGSLRLSCAASGFTFSSFGMHWVRQAPGKGLEWVAYISSDSSAIYYADTVKGRFTISRDNAKNSLYLQMNSLRDEDTAVYYCGRGRENIYYGSRLDYWGQGTTVTVSSGGCGGGKVAALKEKVAALKEKVAALKEKVAALKE
chain 3: not shown
notes: Comparator, an analog of the format of WO2017030926A1; three polypeptide chains; also called B7H3xCD3 DART-Fc
[2]
  binding result: binds

B4: cx5873 (bispecific antibody)
chain 1: DKTHTCPPCPAPGGPSVFLFPPKPKDTLMISRTPEVTCVVVDVSHEDPEVKFNWYVDGVEVHNAKTKPREEQYNSTYRVVSVLTVLHQDWLNGKEYKCKVSNKALPAPIEKTISKAKGQPREPQVYTLPPCRDELTKNQVSLWCLVKGFYPSDIAVEWESNGQPENNYKTTPPVLDSDGSFFLYSKLTVDKSRWQQGNVFSCSVMHEALHNHYTQKSLSLSPTGGGGGSGGGGGSGGGGGSEVQLVESGGGLVQPGGSLRLSCAASGFTFNTYAMNWVRQAPGKCLEWVARIRSKYNNYATYYADSVKGRFTISRDDAKNTLYLQMSSLRAEDTAVYYCVRHGNFGNSYVSWFAYWGQGTLVTVKPGGGGEVQLVESGGGEVQPGGSLRLSCAASGFTFSSYHMSWFRQAPGKQREPVATSHHGGTTNYAGSVKGRFTISRDNAKNTVYLQMNTLRAEDTAVYYCKADHGYQGRGYWGQGTLVTVKP
chain 2: DKTHTCPPCPAPGGPSVFLFPPKPKDTLMISRTPEVTCVVVDVSHEDPEVKFNWYVDGVEVHNAKTKPREEQYNSTYRVVSVLTVLHQDWLNGKEYKCKVSNKALPAPIEKTISKAKGQPREPQVCTLPPSRDELTKNQVSLSCAVKGFYPSDIAVEWESNGQPENNYKTTPPVLDSDGSFFLVSKLTVDKSRWQQGNVFSCSVMHEALHNRYTQKSLSLSPTGGGGGSGGGGGSGGGGGSQAVVTQEPSLTVSPGGTVTLTCGSSTGAVTTSNYANWVQQKPGQAFRGLIGGTNKRAPGVPARFSGSLLGGKAALTISGAQPEDEADYYCALWYSNHWVFGCGTKLEIKGGGGEVQLLESGGGEVQPGGSLRLSCAASGFSFSINAMGWYRQAPGKRREFVAAIESGRNTVYAESVKGRFTISRDNAKNTVYLQMSSLRAEDTAVYYCGLLKGNRVVSPSVAYWGQGTLVTVKP
notes: first-named used
[3]
  binding result: binds
[4]
  binding result: no binding

B5: cx5965 (bispecific antibody)
chain 1: EVQLVESGGGEVQPGGSLRLSCAASGFSFSSNVMMWVRQAPGKGLEWVSTIYSSGTGTFYAESVKGRFTISRDNAKNTLYLQMSSLRPEDTAVYYCATSGPVRGWGPRSQGTLVTVKPPGGGGDKTHTCPPCPAPGGPSVFLFPPKPKDTLMISRTPEVTCVVVDVSHEDPEVKFNWYVDGVEVHNAKTKPREEQYNSTYRVVSVLTVLHQDWLNGKEYKCKVSNKALPAPIEKTISKAKGQPREPQVYTLPPCRDELTKNQVSLWCLVKGFYPSDIAVEWESNGQPENNYKTTPPVLDSDGSFFLYSKLTVDKSRWQQGNVFSCSVMHEALHNHYTQKSLSLSPTGGGGGSGGGGGSGGGGGSEVQLVESGGGLVQPGGSLRLSCAASGFTFNTYAMNWVRQAPGKCLEWVARIRSKYNNYATYYADSVKGRFTISRDDAKNTLYLQMSSLRAEDTAVYYCVRHGNFGNSYVSWFAYWGQGTLVTVKP
chain 2: B4 chain 2
notes: first-named used
[3]
  binding result: binds
[4]
  binding result: no binding

B6: cx4908 (bispecific antibody)
chain 1: EVQLVESGGGEVQPGGSLRLSCAASGSTFSSYHMSWFRQAPGKQREPVATSHHGGTTNYAGSVKGRFTISRDNAKNTVYLQMNTLRAEDTAVYYCKADHGYQGRGYWGQGTLVTVKPDKTHTCPPCPAPGGPSVFLFPPKPKDTLMISRTPEVTCVVVDVSHEDPEVKFNWYVDGVEVHNAKTKPREEQYNSTYRVVSVLTVLHQDWLNGKEYKCKVSNKALPAPIEKTISKAKGQPREPQVYTLPPCRDELTKNQVSLWCLVKGFYPSDIAVEWESNGQPENNYKTTPPVLDSDGSFFLYSKLTVDKSRWQQGNVFSCSVMHEALHNHYTQKSLSLSPTGGSGGGGIEPDIGGSGGSEVQLVESGGGLVQPGGSLRLSCAASGFTFNTYAMNWVRQAPGKCLEWVARIRSKYNNYATYYADSVKGRFTISRDDAKNTLYLQMSSLRAEDTAVYYCVRHGNFGNSYVSWFAYWGQGTLVTVKPEVQLVESGGGEVQPGGSLRLSCAASGFSFGSNVMMWVRQAPGKGPEWVSTIYSSGTGTFYAESVKGRFTISRDNAKNTLYLQMSSLRAEDTAVYYCATSGPVRGWGPWSQGTLVTVKP
chain 2: DKTHTCPPCPAPGGPSVFLFPPKPKDTLMISRTPEVTCVVVDVSHEDPEVKFNWYVDGVEVHNAKTKPREEQYNSTYRVVSVLTVLHQDWLNGKEYKCKVSNKALPAPIEKTISKAKGQPREPQVCTLPPSRDELTKNQVSLSCAVKGFYPSDIAVEWESNGQPENNYKTTPPVLDSDGSFFLVSKLTVDKSRWQQGNVFSCSVMHEALHNRYTQKSLSLSPTGGSGGGGIEPDIGGSGGSQAVVTQEPSLTVSPGGTVTLTCGSSTGAVTTSNYANWVQQKPGQAFRGLIGGTNKRAPGVPARFSGSLLGGKAALTISGAQPEDEADYYCALWYSNHWVFGCGTKLTVLEVQLLESGGGEVQPGGSLRLSCAASGFSFSINAMGWYRQAPGKRREFVAAIESGRNTVYAESVKGRFTISRDNAKNTVYLQMSSLRAEDTAVYYCGLLKGNRVVSPSVAYWGQGTLVTVKP
notes: chain 2 ends in the 4-1BB sdAb RH3v5-1
[1]
  binding result: no binding (tested: 200 nM)
